Measured values published in US20090036380A1, “Composition And Method For Brain Tumor Therapy” (Yeda Research and Development Co., Ltd., priority 2006, published 2009).

Tests used:
EGFR = biological target: T1, EGFR (Homo sapiens, UniProt P00533); assay: Co-immunoprecipitation of HA-Karet with EGFR in HEK cells; type: binding; settings: co-transfected HEK cells
T1 construct: expressed in transfected cells; host or cells: HEK cells
Experimental: FIG. 3g is a co-immunoprecipitation assay depicting co-immunoprecipitation of HA-Karet with EGFR in co-transfected HEK cells. Cells were co-transfected with Ha Karet or control vector and EGFR. Cells were lysed with NP40, the HA-beads (i.e., beads conjugated to HA antibody) were blocked with Hek lysate, and elution was done for 30 minutes at 37° C. The membranes were probed with anti FLAG antibody. Note the co-immunoprecipitation of Karet with EGFR in HEK cells.

necdin = biological target: T2, necdin (Homo sapiens, UniProt Q99608); assay: Co-immunoprecipitation of Karet with necdin; type: binding; settings: necdin-PC12 cells, during 50 ng/ml NGF treatment
T2 construct: expressed in transfected cells
T2 sequence (Q99608 1-321): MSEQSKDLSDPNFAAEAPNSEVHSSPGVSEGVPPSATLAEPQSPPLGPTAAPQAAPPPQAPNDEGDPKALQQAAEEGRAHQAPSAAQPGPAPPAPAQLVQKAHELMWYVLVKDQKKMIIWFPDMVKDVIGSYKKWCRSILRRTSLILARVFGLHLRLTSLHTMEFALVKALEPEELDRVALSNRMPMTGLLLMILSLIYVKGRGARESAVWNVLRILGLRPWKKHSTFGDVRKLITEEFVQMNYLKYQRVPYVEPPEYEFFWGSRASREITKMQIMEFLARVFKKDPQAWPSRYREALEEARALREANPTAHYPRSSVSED
Experimental: Karet tagged with the HA epitope was immunoprecipitated with anti-HA antibody, the precipitated proteins were separated electrophoretically, and gel blots were incubated with anti-necdin. In control experiments the HA-Karet was substituted with vector.
FIGS. 4a-c are co-immunoprecipitation assay results depicting the influence of NGF treatment on TrkA-Karet interaction. FIG. 4a depicts that TrkA-Karet interaction occurred prior to NGF treatment and was enhanced after ligand stimulation for 10 minutes (10 m) or 2 hours (2 h). HA-Karet was electroporated into cell line PC12, and the cells were treated with 50 ng/ml NGF for the indicated time periods in order to activate p75 and TrkA. Karet tagged with the HA epitope was immunoprecipitated with anti-HA antibody, the precipitated proteins were separated electrophoretically, and gel blots were incubated with anti-TrkA antibody (RTA). FIG. 4b depicts that necdin seems to compete with TrkA for binding to Karet. myc-Karet was electroporated into necdin stable cell line, and the cells were treated with 50 ng/ml NGF for the indicated time periods. Karet tagged with the myc epitope was immunoprecipitated with anti-myc antibody, the precipitated proteins were separated electrophoretically, and gel blots were incubated with anti-TrkA antibody (RTA). […] A blot from the same experiment was stripped and re-incubated with anti-necdin antibody. […]

Karet: full-length mouse Karet protein (SEQ ID NO:1), PTB domain protein, expressed from pcDNA3 with HA tag
co-immunoprecipitation with EGFR (EGFR): co-immunoprecipitation | interaction with necdin (necdin): robust and constant
